We go through two substances from US20200123264A1.

Assay [1] addresses extracellular domain of human LEPR with an N-terminal myc-myc tag, GPI-anchored on HEK293 cells (human) (UniProt P48357). Briefly: FACS, secondary alone, HEK293/hLEPR-GPI cells, 1 µM Leptin. For orientation: A flow cytometer gives signals particle by particle.
For assay [2] the target is unchanged. Nature of the assay: FACS, secondary alone, HEK293/hLEPR-GPI cells, no added Leptin.

extracellular domain of human LEPR with an N-terminal myc-myc tag, GPI-anchored on HEK293 cells (human), sequence (P48357 22-839 limits assumed): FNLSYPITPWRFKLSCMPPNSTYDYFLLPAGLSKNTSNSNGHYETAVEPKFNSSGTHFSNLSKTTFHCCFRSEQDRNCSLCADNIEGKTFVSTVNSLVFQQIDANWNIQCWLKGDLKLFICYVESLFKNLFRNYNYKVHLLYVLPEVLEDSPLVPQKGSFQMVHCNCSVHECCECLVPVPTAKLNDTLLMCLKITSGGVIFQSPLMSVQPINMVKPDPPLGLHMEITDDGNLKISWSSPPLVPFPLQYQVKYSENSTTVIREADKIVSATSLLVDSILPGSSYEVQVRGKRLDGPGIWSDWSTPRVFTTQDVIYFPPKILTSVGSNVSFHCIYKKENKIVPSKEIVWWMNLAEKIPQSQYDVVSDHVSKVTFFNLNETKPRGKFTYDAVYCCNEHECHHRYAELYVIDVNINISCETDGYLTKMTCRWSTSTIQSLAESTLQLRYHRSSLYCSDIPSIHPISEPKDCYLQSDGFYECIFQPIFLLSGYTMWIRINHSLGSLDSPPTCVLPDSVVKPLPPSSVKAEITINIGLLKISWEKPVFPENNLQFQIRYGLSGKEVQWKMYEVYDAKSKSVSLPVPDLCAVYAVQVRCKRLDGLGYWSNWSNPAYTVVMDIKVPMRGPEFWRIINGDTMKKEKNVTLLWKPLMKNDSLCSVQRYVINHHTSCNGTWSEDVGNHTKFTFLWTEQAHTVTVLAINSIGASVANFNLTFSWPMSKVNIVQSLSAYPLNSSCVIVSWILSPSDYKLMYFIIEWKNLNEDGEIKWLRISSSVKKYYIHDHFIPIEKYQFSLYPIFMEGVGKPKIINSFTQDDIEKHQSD

With Anti-mouse IgG secondary antibody alone, the Binding Ratio (normalized to unstained) in assay [1] and in assay [2] was 2 fold in each case.

Take Anti-human IgG secondary antibody alone: the Binding Ratio (normalized to unstained) in assay [1] and in assay [2] was 3 fold throughout.
